This note sets out measurements from PMC5201418.

Experiment [1] addresses TbAdoMetDC H172A (Trypanosoma brucei).
Experiment [2] has as its target Trypanosoma brucei S-adenosylmethionine decarboxylase, wild type (Trypanosoma brucei).
Experiment [3] has as its target N-terminally truncated TbAdoMetDCΔ26 (Trypanosoma brucei).
For experiment [4], the target named is TbAdoMetDC-W137A/M146A (Trypanosoma brucei).

Chain of Trypanosoma brucei S-adenosylmethionine decarboxylase, wild type (Trypanosoma brucei) (P50244 1-85, tags left off, chain 1 of 2): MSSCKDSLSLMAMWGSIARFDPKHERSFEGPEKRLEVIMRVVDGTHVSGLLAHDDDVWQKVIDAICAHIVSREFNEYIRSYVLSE
Chain of Trypanosoma brucei S-adenosylmethionine decarboxylase, wild type (Trypanosoma brucei) (P50244 86-370 limits assumed, chain 2 of 2): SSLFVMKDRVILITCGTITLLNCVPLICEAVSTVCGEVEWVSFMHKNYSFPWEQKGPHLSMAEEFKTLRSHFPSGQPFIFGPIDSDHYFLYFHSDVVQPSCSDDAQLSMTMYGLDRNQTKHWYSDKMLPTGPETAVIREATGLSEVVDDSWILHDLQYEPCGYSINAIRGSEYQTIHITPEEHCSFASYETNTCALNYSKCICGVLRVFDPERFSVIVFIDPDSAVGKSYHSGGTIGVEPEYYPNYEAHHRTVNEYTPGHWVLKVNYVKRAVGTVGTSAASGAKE

Consider “Trypanosoma brucei prozyme, wild type (natural protein)”, for which the kcat/Km of AdoMet decarboxylation (14C-AdoMet, 37°C) by the TbAdoMetDC/prozyme heterodimer, with 4 mM putrescine in experiment [1] came to 2100 s^−1M^−1; in experiment [2], 3200 s^−1M^−1; in experiment [3], 7.6 s^−1M^−1; in experiment [4], 87 s^−1M^−1. Besides, the kcat/Km of AdoMet decarboxylation (14C-AdoMet, 37°C) by the TbAdoMetDC/prozyme heterodimer, without putrescine in experiment [1] came out at 93 s^−1M^−1; in experiment [2], 2600 s^−1M^−1; in experiment [3] it was 2.2 s^−1M^−1; in experiment [4], 5 s^−1M^−1.

In the case of prozyme-M148'A/Y152'A (natural protein), in experiment [2], the kcat/Km of AdoMet decarboxylation (14C-AdoMet, 37°C) by the TbAdoMetDC/prozyme heterodimer, with 4 mM putrescine amounted to 660 s^−1M^−1 and the kcat/Km of AdoMet decarboxylation (14C-AdoMet, 37°C) by the TbAdoMetDC/prozyme heterodimer, without putrescine was 16 s^−1M^−1.
